# Results reported in paper PMC3441751, “Structure and Assembly of a Trans-Periplasmic Channel for Type IV Pili in Neisseria meningitidis” (PLoS Pathogens, 2012).
# Target: the molecule itself
# Assay: cryo-EM structure; single particle averaging of unstained frozen-hydrated PilQ complexes in a dodecyl maltoside-containing buffer at 1 mg/ml; 25,303 particles; C12 symmetry
protein,measurement,value
"PilQ dodecamer (complete N. meningitidis PilQ oligomer) (natural protein, PilQ secretin, Neisseria meningitidis; The source of the sample is in Text S1; also called entire PilQ dodecamer; intact PilQ oligomer; source: PilQ complexes resuspended in a dodecyl maltoside-containing buffer at 1 mg/ml; copies: 12) GNITDIKVSSLPNKQKIVKVSFDKEIVNPTGFVTSSPARIALDFEQTGISMDQQVLEYADPLLSKISAAQNSSRARLVLNLNKPGQYNTEVRGNKVWIFINESDDTVSAPARPAVKAAPAAPAKQQAAAPSTKSAVSVSEPFTPAKQQAAAPFTESVVSVSAPFSPAKQQAAASAKQQAAAPAKQQAAAPAKQQAAAPAKQTNIDFRKDGKNAGIIELAALGFAGQPDISQQHDHIIVTLKNHTLPTTLQRSLDVADFKTPVQKVTLKRLNNDTQLIITTAGNWELVNKSAAPGYFTFQVLPKKQNLESGGVNNAPKTFTGRKISLDFQDVEIRTILQILAKESGMNIVASDSVNGKMTLSLKDVPWDQALDLVMQARNLDMRQQGNIVNIAPRDELLAKDKALLQAEKDIADLGALYSQNFQLKYKNVEEFRSILRLDNADTTGNRNTLISGRGSVLIDPATNTLIVTDTRSVIEKFRKLIDELDVPAQQVMIEARIVEAADGFSRDLGVKFGATGKKKLKNDTSAFGWGVNSGFGGDDKWGAETKINLPITAAANSISLVRAISSGALNLELSASESLSKTKTLANPRVLTQNRKEAKIESGYEIPFTVTSIANGGSSTNTELKKAVLGLTVTPNITPDGQIIMTVKINKDSPAQCASGNQTILCISTKNLNTQAMVENGGTLIVGGIYEEDNGNTLTKVPLLGDIPVIGNLFKTRGKKTDRRELLIFITPRIMGTAGNSLRY",stoichiometry N,12
